Reference: US20200024330A1

Tests used:
Assay in all cases: cell-based or functional assay
[1] = molecular target: HIV-1 Env of isolate 93IN905 (HIV-1)
[2] = molecular target: HIV-1 Env of isolate 93MW959 (HIV-1)
[3] = molecular target: HIV-1 Env of isolate 97ZA012 (HIV-1)
[4] = molecular target: HIV-1 Env of isolate 98IN022 (HIV-1)
[5] = molecular target: HIV-1 Env of isolate JRCSF (HIV-1) (UniProt P20871)
[6] = molecular target: HIV-1 Env of isolate MGRM-Chronic-B-010 (HIV-1)
[7] = molecular target: HIV-1 Env of isolate MGRM-Chronic-B-011 (HIV-1)
[8] = molecular target: HIV-1 Env of isolate MGRM-Chronic-B-012 (HIV-1)
[9] = molecular target: HIV-1 Env of isolate MGRM-Chronic-B-017 (HIV-1)
[10] = molecular target: HIV-1 Env of isolate MGRM-Chronic-B-018 (HIV-1)
[11] = molecular target: HIV-1 Env of isolate MGRM-Chronic-B-020 (HIV-1)
[12] = molecular target: HIV-1 Env of isolate MGRM-Chronic-B-023 (HIV-1)
[13] = molecular target: HIV-1 Env of isolate MGRM-Chronic-B-024 (HIV-1)
[14] = molecular target: HIV-1 Env of isolate MGRM-D-011 (HIV-1)
[15] = molecular target: HIV-1 Env of isolate MGRM-D-012 (HIV-1)
[16] = molecular target: HIV-1 Env of isolate MGRM-D-013 (HIV-1)
[17] = molecular target: HIV-1 Env of isolate MGRM-D-014 (HIV-1)
[18] = molecular target: HIV-1 Env of isolate MGRM-D-016 (HIV-1)
[19] = molecular target: HIV-1 Env of isolate MGRM-D-018 (HIV-1)
[20] = molecular target: HIV-1 Env of isolate MGRM-D-019 (HIV-1)
[21] = molecular target: HIV-1 Env of isolate MGRM-D-020 (HIV-1)
[22] = molecular target: HIV-1 Env of isolate MGRM-D-021 (HIV-1)
[23] = molecular target: HIV-1 Env of isolate MGRM-D-022 (HIV-1)
[24] = molecular target: HIV-1 Env of isolate MGRM-D-024 (HIV-1)
[25] = molecular target: HIV-1 Env of isolate MGRM-D-026 (HIV-1)
[26] = molecular target: HIV-1 Env of isolate MGRM-D-028 (HIV-1)
[27] = molecular target: HIV-1 Env of isolate MGRM-D-029 (HIV-1)
[28] = molecular target: HIV-1 Env of isolate MGRM-F1-004 (HIV-1)
[29] = molecular target: HIV-1 Env of isolate MGRM-F1-006 (HIV-1)
[30] = molecular target: HIV-1 Env of isolate MGRM-F1-008 (HIV-1)
[31] = molecular target: HIV-1 Env of isolate MGRM-F1-010 (HIV-1)
[32] = molecular target: HIV-1 Env of isolate MGRM-F1-012 (HIV-1)
[33] = molecular target: HIV-1 Env of isolate MGRM-F1-013 (HIV-1)
[34] = molecular target: HIV-1 Env of isolate MGRM-F1-014 (HIV-1)
[35] = molecular target: HIV-1 Env of isolate MGRM-F1-015 (HIV-1)
[36] = molecular target: HIV-1 Env of isolate MGRM-F1-016 (HIV-1)
[37] = molecular target: HIV-1 Env of isolate MGRM-F1-017 (HIV-1)
[38] = molecular target: HIV-1 Env of isolate MGRM-F1-018 (HIV-1)
[39] = molecular target: HIV-1 Env of isolate MGRM-F1-020 (HIV-1)
[40] = molecular target: HIV-1 Env of isolate MGRM-F1-021 (HIV-1)
[41] = molecular target: HIV-1 Env of isolate MGRM-F1-022 (HIV-1)
[42] = molecular target: HIV-1 Env of isolate MGRM-F1-023 (HIV-1)
[43] = molecular target: HIV-1 Env of isolate NL43 (HIV-1)
[44] = molecular target: HIV-1 Env of isolate PVO.4 (HIV-1)
[45] = molecular target: HIV-1 Env of isolate QH0692.42 (HIV-1)
[46] = molecular target: HIV-1 Env of isolate SC422661.8 (HIV-1)
[47] = molecular target: HIV-1 Env of isolate SF162 (HIV-1) (UniProt P19550)
[48] = molecular target: HIV-1 Env of isolate THR0.18 (HIV-1)
[49] = molecular target: HIV-1 Env of isolate TRJ04551.58 (HIV-1)
[50] = molecular target: HIV-1 Env of isolate TRO.11 (HIV-1)
[51] = molecular target: HIV-1 Env of isolate VLGCB3 (HIV-1)
[52] = molecular target: HIV-1 92TH021 envelope glycoprotein (Env) on pseudovirus (HIV-1)
[53] = molecular target: HIV-1 92UG024 envelope glycoprotein (Env) on pseudovirus (HIV-1)
[54] = molecular target: HIV-1 MGRM-D-018 envelope glycoprotein (Env) on pseudovirus (HIV-1)

Sequence of PGT-141 (antibody) (VH): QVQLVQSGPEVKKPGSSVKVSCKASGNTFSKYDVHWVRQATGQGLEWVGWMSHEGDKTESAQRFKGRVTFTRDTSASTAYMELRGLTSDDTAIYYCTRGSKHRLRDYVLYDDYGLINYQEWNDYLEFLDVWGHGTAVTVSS
Sequence of PGT-141 (antibody) (VL): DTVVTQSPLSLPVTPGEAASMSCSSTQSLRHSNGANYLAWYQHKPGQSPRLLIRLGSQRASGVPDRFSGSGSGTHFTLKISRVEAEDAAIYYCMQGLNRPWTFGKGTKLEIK
Sequence of PGT-144 (antibody) (VH): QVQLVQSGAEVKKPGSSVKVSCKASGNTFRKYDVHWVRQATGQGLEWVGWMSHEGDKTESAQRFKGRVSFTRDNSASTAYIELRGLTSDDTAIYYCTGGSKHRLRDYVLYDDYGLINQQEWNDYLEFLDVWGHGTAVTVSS
Sequence of PGT-144 (antibody) (VL): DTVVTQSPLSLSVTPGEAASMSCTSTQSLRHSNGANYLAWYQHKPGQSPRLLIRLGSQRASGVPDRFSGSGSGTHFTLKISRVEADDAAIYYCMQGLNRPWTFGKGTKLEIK

Substance: PGT-144 (antibody)
- neutralization IC50 [1]: 0.132 µg/mL
- neutralization IC50 [2]: 0.332 µg/mL
- neutralization IC50 [3]: > 50 µg/mL
- neutralization IC50 [4]: 0.171 µg/mL
- neutralization IC50 [5]: 0.149 µg/mL
- neutralization IC50 [6]: > 50 µg/mL
- neutralization IC50 [7]: 5.64 µg/mL
- neutralization IC50 [8]: > 50 µg/mL
- neutralization IC50 [9]: 0.712 µg/mL
- neutralization IC50 [10]: 2.4 µg/mL
- neutralization IC50 [11]: > 50 µg/mL
- neutralization IC50 [12]: > 50 µg/mL
- neutralization IC50 [13]: 0.04 µg/mL
- IC50, pseudovirus neutralization [14]: > 50 µg/mL
- IC50, pseudovirus neutralization [15]: > 50 µg/mL
- IC50, pseudovirus neutralization [16]: > 50 µg/mL
- IC50, pseudovirus neutralization [17]: 0.113 µg/mL
- IC50, pseudovirus neutralization [18]: > 50 µg/mL
- IC50, pseudovirus neutralization [19]: > 50 µg/mL
- IC50, pseudovirus neutralization [20]: > 50 µg/mL
- IC50, pseudovirus neutralization [21]: > 50 µg/mL
- IC50, pseudovirus neutralization [22]: > 50 µg/mL
- IC50, pseudovirus neutralization [23]: > 50 µg/mL
- IC50, pseudovirus neutralization [24]: > 50 µg/mL
- IC50, pseudovirus neutralization [25]: > 50 µg/mL
- IC50, pseudovirus neutralization [26]: > 50 µg/mL
- IC50, pseudovirus neutralization [27]: 0.459 µg/mL
- IC50, pseudovirus neutralization [28]: 0.105 µg/mL
- IC50, pseudovirus neutralization [29]: 20.6 µg/mL
- IC50, pseudovirus neutralization [30]: 0.507 µg/mL
- IC50, pseudovirus neutralization [31]: > 50 µg/mL
- IC50, pseudovirus neutralization [32]: > 50 µg/mL
- IC50, pseudovirus neutralization [33]: 0.509 µg/mL
- IC50, pseudovirus neutralization [34]: 0.014 µg/mL
- IC50, pseudovirus neutralization [35]: > 50 µg/mL
- IC50, pseudovirus neutralization [36]: > 50 µg/mL
- IC50, pseudovirus neutralization [37]: > 50 µg/mL
- IC50, pseudovirus neutralization [38]: > 50 µg/mL
- IC50, pseudovirus neutralization [39]: 8.93 µg/mL
- IC50, pseudovirus neutralization [40]: > 50 µg/mL
- IC50, pseudovirus neutralization [41]: 0.382 µg/mL
- IC50, pseudovirus neutralization [42]: 1.16 µg/mL
- neutralization IC50 [43]: > 50 µg/mL
- neutralization IC50 [44]: 0.535 µg/mL
- neutralization IC50 [45]: > 50 µg/mL
- neutralization IC50 [46]: > 50 µg/mL
- neutralization IC50 [47]: > 50 µg/mL
- neutralization IC50 [48]: 0.029 µg/mL
- neutralization IC50 [49]: > 50 µg/mL
- neutralization IC50 [50]: 4.73 µg/mL
- neutralization IC50 [51]: > 50 µg/mL

Substance: PGT-141 (antibody)
- neutralization IC50 [1]: 0.001 µg/mL
- neutralization IC50 [2]: 0.003 µg/mL
- neutralization IC50 [3]: > 50 µg/mL
- neutralization IC50 [4]: 0.001 µg/mL
- neutralization IC50 [5]: 0.009 µg/mL
- neutralization IC50 [6]: > 50 µg/mL
- neutralization IC50 [7]: 2.24 µg/mL
- neutralization IC50 [8]: > 50 µg/mL
- neutralization IC50 [9]: 0.147 µg/mL
- neutralization IC50 [10]: 0.572 µg/mL
- neutralization IC50 [11]: > 50 µg/mL
- neutralization IC50 [12]: 0.318 µg/mL
- neutralization IC50 [13]: 0.011 µg/mL
- IC50, pseudovirus neutralization [14]: > 50 µg/mL
- IC50, pseudovirus neutralization [15]: > 50 µg/mL
- IC50, pseudovirus neutralization [16]: 0.179 µg/mL
- IC50, pseudovirus neutralization [17]: 0.01 µg/mL
- IC50, pseudovirus neutralization [18]: > 50 µg/mL
- IC50, pseudovirus neutralization [19]: > 50 µg/mL
- IC50, pseudovirus neutralization [20]: 1.66 µg/mL
- IC50, pseudovirus neutralization [21]: > 50 µg/mL
- IC50, pseudovirus neutralization [22]: > 50 µg/mL
- IC50, pseudovirus neutralization [23]: > 50 µg/mL
- IC50, pseudovirus neutralization [24]: > 50 µg/mL
- IC50, pseudovirus neutralization [25]: 32.5 µg/mL
- IC50, pseudovirus neutralization [26]: < 50 µg/mL
- IC50, pseudovirus neutralization [27]: 0.057 µg/mL
- IC50, pseudovirus neutralization [28]: 0.021 µg/mL
- IC50, pseudovirus neutralization [29]: 8.99 µg/mL
- IC50, pseudovirus neutralization [30]: 0.193 µg/mL
- IC50, pseudovirus neutralization [31]: > 50 µg/mL
- IC50, pseudovirus neutralization [32]: > 50 µg/mL
- IC50, pseudovirus neutralization [33]: 0.043 µg/mL
- IC50, pseudovirus neutralization [34]: 0.001 µg/mL
- IC50, pseudovirus neutralization [35]: > 50 µg/mL
- IC50, pseudovirus neutralization [36]: > 50 µg/mL
- IC50, pseudovirus neutralization [37]: 30.8 µg/mL
- IC50, pseudovirus neutralization [38]: 0.785 µg/mL
- IC50, pseudovirus neutralization [39]: 1.15 µg/mL
- IC50, pseudovirus neutralization [40]: > 50 µg/mL
- IC50, pseudovirus neutralization [41]: 0.114 µg/mL
- IC50, pseudovirus neutralization [42]: 0.307 µg/mL
- neutralization IC50 [43]: > 50 µg/mL
- neutralization IC50 [44]: 0.113 µg/mL
- neutralization IC50 [45]: > 50 µg/mL
- neutralization IC50 [46]: 1.66 µg/mL
- neutralization IC50 [47]: > 50 µg/mL
- neutralization IC50 [48]: 0.007 µg/mL
- neutralization IC50 [49]: > 50 µg/mL
- neutralization IC50 [50]: 0.383 µg/mL
- neutralization IC50 [51]: > 50 µg/mL

Substance: 1496_C09 (PG9) (TCN-109) monoclonal antibody
- IC50, pseudovirus neutralization [52]: 0.103 µg/mL
- IC50, pseudovirus neutralization [53]: 1.91 µg/mL
- IC50, pseudovirus neutralization [54]: 0.0444 µg/mL
